Our source for the β-galactosidase activity values is PMC7589982.

In this assay the target is HPV16 E6 oncoprotein, full-length, LexA bait (pGilda/LexA) (human papillomavirus 16) (UniProt P03126). Briefly: two-hybrid; full-length HPV16 E6 in pGilda/LexA as bait; growth on medium lacking leucine, blue colonies, beta-galactosidase activity (unit) with ONPG.
Sequence of UniProt P03126 (P03126 whole entry): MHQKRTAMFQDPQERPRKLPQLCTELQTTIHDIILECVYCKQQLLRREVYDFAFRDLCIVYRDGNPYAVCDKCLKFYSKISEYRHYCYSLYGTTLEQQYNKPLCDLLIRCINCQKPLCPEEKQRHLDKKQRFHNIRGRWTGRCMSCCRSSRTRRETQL

As for “IRF-1 (interferon regulatory factor-1), yeast two-hybrid prey (natural protein)”, the β-galactosidase activity was found to be 88.2 unit.
